Target: the molecule itself
Assay: SEC; Superdex 200 Increase 10/300 GL, 50 mM K4P2O7 buffer pH 8.6, 0.5 ml/min, 4 °C; size judged against standard peaks (158 kDa and 44 kDa) and the 53 kDa monomer band on reducing SDS-PAGE

B1: 6xHis-tagged recombinant human GABA transaminase (GABA-T) (enzyme)
chain: not shown
notes: human GABA transaminase (GABA-T; EC 2.6.1.19) encoded by the ABAT gene; The band on reducing SDS-PAGE was 53 kDa; The purification tag was not removed; also called γ-aminobutyric acid transaminase; 4-aminobutyrate transaminase; source: Expi293F cells, transiently transfected, purified (Ni-NTA, size-exclusion chromatography); not shown: Avi-tag (preceded by an HRV 3C protease site), C-terminal, …
Question: With B1 as the protein, how does the “stoichiometry N” value read?
Answer: Its value is 2.
